# Test results published in patent publication US8290713 (LONZA BIOLOGICS, dated 2012).
# Non-standard residues stand in square brackets, D forms with d.
# Target: α-synuclein (UniProt P37840 1-140)
# Test: cell-based or functional assay
# Note: test concentration or dose not given here.
% decrease in ThT fluorescence [%],% decrease in rate of aggregation [%],% increase in Lag phase [%],Binder
17.8,24.3,33.5,H-[dQ][dY][dS][dV][dL][dV]-NH2 (SMILES CC(C)C[C@@H](NC(=O)[C@H](NC(=O)[C@@H](CO)NC(=O)[C@@H](Cc1ccc(O)cc1)NC(=O)[C@H](N)CCC(N)=O)C(C)C)C(=O)N[C@@H](C(N)=O)C(C)C) [ZP-0229]
42.3,34.3,7.7,H-[dQ][dY][dK][dV][dL][dI]-NH2 (SMILES CC[C@@H](C)[C@@H](NC(=O)[C@@H](CC(C)C)NC(=O)[C@H](NC(=O)[C@@H](CCCCN)NC(=O)[C@@H](Cc1ccc(O)cc1)NC(=O)[C@H](N)CCC(N)=O)C(C)C)C(N)=O) [ZP-0222]
20.4,4.8,-12.6,Ac-[dD][dR][dY][dS][dV][dL][dI]-NH2 (SMILES CC[C@@H](C)[C@@H](NC(=O)[C@@H](CC(C)C)NC(=O)[C@H](NC(=O)[C@@H](CO)NC(=O)[C@@H](Cc1ccc(O)cc1)NC(=O)[C@@H](CCCNC(=N)N)NC(=O)[C@@H](CC(=O)O)NC(C)=O)C(C)C)C(N)=O) [ZP-0214]
24.7,22.8,-22.4,H-[dQ][dY][dT][dV][dL][dI]-NH2 (SMILES CC[C@@H](C)[C@@H](NC(=O)[C@@H](CC(C)C)NC(=O)[C@H](NC(=O)[C@H](NC(=O)[C@@H](Cc1ccc(O)cc1)NC(=O)[C@H](N)CCC(N)=O)[C@H](C)O)C(C)C)C(N)=O) [ZP-0221]
27.6,17.5,3.1,H-[dQ][dY][dS][dV][dL][dI]-NH2 (SMILES CC[C@@H](C)[C@@H](NC(=O)[C@@H](CC(C)C)NC(=O)[C@H](NC(=O)[C@@H](CO)NC(=O)[C@@H](Cc1ccc(O)cc1)NC(=O)[C@H](N)CCC(N)=O)C(C)C)C(N)=O) [ZP-0215]
25.6,12.9,29.4,Ac-[dE][dK][dY][dS][dV][dL][dI]-NH2 (SMILES CC[C@@H](C)[C@@H](NC(=O)[C@@H](CC(C)C)NC(=O)[C@H](NC(=O)[C@@H](CO)NC(=O)[C@@H](Cc1ccc(O)cc1)NC(=O)[C@@H](CCCCN)NC(=O)[C@@H](CCC(=O)O)NC(C)=O)C(C)C)C(N)=O) [ZP-0213]
40.8,46.2,38.2,H-[dP][dY][dS][dV][dL][dI]-NH2 (SMILES CC[C@@H](C)[C@@H](NC(=O)[C@@H](CC(C)C)NC(=O)[C@H](NC(=O)[C@@H](CO)NC(=O)[C@@H](Cc1ccc(O)cc1)NC(=O)[C@H]1CCCN1)C(C)C)C(N)=O) [ZP-0228]
51.1,44.9,-14.4,Ac-[dR][dY][dS][dV][dL][dI]-NH2 (SMILES CC[C@@H](C)[C@@H](NC(=O)[C@@H](CC(C)C)NC(=O)[C@H](NC(=O)[C@@H](CO)NC(=O)[C@@H](Cc1ccc(O)cc1)NC(=O)[C@@H](CCCNC(=N)N)NC(C)=O)C(C)C)C(N)=O) [ZP-0212]
